From patent publication US20160051704A1, “MOLECULAR IMAGING PROBES FOR LUNG CANCER INTRAOPERATIVE GUIDANCE” (H. Lee Moffitt Cancer Center and Research Institute, Inc., priority 2013, published 2016)

Molecular target: T1, delta opioid receptor (δOR) on HCT-116/δOR cells, P41143
T1 chain: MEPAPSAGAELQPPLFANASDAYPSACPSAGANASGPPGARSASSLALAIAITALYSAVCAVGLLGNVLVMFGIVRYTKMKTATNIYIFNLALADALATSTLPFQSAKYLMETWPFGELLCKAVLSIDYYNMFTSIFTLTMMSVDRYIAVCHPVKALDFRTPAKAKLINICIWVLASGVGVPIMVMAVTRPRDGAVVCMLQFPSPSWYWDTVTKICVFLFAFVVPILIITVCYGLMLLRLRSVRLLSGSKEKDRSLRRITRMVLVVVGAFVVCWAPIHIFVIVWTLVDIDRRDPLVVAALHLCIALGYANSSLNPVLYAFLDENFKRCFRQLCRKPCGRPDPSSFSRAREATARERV
Test: in cyto time-resolved fluorescence saturation binding on HCT-116/δOR cells

Binder: YCGFC (modifications not checked) [Europium (Eu)-diethylenetriaminepentaacetic acid (DTPA)[D-Pen2, L-Cys5] enkephalin (DPLCE)]
- Bmax: 3.01e+06 AFU
